Results reported in US20160137740A1 (AstraZeneca / MedImmune, published 2016).

T1: Mouse OX40 (mouse, UniProt P47741 20-272)
T1 construct: also called mOX40; murine OX40
T1 sequence: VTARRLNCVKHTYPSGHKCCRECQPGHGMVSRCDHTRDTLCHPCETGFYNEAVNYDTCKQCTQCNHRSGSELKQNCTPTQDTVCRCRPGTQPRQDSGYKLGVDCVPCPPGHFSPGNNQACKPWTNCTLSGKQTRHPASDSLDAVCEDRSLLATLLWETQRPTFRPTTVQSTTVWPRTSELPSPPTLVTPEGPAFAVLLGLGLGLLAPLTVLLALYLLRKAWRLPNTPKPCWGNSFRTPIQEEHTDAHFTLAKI

T2: Recombinant human TNFRSF16 (NGFR) (human, UniProt P08138 29-250)
T2 construct: Plate-adsorbed antigen of the ELISA
T2 sequence (looked up): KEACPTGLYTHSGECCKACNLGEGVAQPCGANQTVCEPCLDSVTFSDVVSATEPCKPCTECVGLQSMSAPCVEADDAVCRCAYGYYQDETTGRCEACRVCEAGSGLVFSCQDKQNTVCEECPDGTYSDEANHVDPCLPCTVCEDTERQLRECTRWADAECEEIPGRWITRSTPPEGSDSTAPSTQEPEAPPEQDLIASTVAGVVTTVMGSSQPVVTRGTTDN

T3: Recombinant human TNFRSF1β (TNFRII) (human, UniProt P20333 23-257)
T3 construct: Plate-adsorbed antigen of the ELISA; also called TNFR2; TNFRSF1B
T3 sequence (looked up): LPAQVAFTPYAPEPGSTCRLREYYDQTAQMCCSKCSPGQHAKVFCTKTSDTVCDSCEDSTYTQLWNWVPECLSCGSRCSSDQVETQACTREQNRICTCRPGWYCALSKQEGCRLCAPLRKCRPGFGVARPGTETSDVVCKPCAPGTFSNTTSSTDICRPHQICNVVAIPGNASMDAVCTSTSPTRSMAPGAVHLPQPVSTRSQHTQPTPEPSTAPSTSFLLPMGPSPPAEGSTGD

T4: Recombinant human TNFRSF18 (GITR) (human, UniProt Q9Y5U5 26-162, limits assumed)
T4 construct: Plate-adsorbed antigen of the ELISA
T4 sequence (looked up): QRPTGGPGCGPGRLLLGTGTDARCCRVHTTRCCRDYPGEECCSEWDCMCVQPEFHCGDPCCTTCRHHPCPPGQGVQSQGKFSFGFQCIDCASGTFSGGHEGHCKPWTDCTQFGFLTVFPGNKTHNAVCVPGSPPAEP

T5: Recombinant human TNFRSF14 (HVEM) (human, UniProt Q92956 39-202, limits assumed)
T5 construct: Plate-adsorbed antigen of the ELISA
T5 sequence (looked up): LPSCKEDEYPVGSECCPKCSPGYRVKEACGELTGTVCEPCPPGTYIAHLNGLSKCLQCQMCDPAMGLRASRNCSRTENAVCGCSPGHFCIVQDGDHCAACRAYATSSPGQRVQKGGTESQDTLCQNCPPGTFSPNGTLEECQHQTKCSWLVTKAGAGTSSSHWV

T6: Recombinant human TNFRSF21 (DR6) (human, UniProt O75509 42-349, limits assumed)
T6 construct: Plate-adsorbed antigen of the ELISA
T6 sequence (looked up): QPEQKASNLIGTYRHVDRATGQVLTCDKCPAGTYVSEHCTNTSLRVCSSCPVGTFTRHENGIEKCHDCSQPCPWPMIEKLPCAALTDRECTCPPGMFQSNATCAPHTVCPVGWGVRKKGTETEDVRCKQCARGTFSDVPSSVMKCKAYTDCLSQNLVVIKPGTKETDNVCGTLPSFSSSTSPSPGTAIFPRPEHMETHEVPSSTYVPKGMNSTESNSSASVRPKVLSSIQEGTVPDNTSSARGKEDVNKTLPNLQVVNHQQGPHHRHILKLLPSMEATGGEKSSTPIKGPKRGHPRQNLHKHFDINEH

T7: Recombinant human TNFRSF11B (OPG) (human, UniProt O00300 22-401, limits assumed)
T7 construct: Plate-adsorbed antigen of the ELISA; also called osteoprotegerin
T7 sequence (looked up): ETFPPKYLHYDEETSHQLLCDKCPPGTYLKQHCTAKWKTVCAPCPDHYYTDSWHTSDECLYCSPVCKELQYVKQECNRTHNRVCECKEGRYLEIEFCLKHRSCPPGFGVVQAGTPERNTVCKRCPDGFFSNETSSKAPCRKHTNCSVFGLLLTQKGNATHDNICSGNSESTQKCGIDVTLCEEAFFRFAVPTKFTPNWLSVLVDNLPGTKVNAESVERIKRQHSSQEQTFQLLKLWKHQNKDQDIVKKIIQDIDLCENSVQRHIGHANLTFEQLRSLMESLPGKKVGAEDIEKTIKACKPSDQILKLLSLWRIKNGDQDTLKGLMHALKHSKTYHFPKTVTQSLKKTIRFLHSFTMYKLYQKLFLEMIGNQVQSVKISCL

T8: Recombinant human TNFRSF11A (RANK) (human, UniProt Q9Y6Q6 30-212)
T8 construct: Plate-adsorbed antigen of the ELISA; also called CD265
T8 sequence (looked up): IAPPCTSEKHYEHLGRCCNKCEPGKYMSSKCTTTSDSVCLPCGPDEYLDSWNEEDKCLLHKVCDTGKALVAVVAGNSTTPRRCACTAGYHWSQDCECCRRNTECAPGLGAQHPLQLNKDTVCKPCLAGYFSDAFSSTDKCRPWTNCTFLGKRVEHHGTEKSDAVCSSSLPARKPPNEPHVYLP

T9: Recombinant human TNFRSF6 (FAS) (human, UniProt P25445 26-173)
T9 construct: Plate-adsorbed antigen of the ELISA
T9 sequence (looked up): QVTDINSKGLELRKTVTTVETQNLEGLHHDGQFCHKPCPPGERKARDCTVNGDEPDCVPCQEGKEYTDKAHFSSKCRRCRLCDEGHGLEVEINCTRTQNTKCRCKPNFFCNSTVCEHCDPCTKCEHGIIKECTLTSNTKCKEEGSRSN

B1: Rat anti-mouse OX40, clone OX86 (antibody, V domains shown)
VH: QVQLKESGPGLVQPSQTLSLTCTVSGFSLTGYNLHWVRQPPGKGLEWMGRMRYDGDTYYNSVLKSRLSISRDTSKNQVFLKMNSLQTDDTAIYYCTRDGRGDSFDYWGQGVMVTVSS
VL: DIVMTQGALPNPVPSGESASITCRSSQSLVYKDGQTYLNWFLQRPGQSPQLLTYWMSTRASGVSDRFSGSGSGTYFTLKISRVRAEDAGVYYCQQVREYPFTFGSGTKLEIK
notes: Rat IgG1κ; also called anti-mouse CD134 (OX86 clone) antibody
B2: OX40mAb29 (antibody, human IgG1, kappa)
heavy: QVQLQESGPGLVKPSQTLSLTCAVYGGSFSSGYWNWIRKHPGKGLEYIGYISYNGITYHNPSLKSRITINRDTSKNQYSLQLNSVTPEDTAVYYCARYKYDYDGGHAMDYWGQGTLVTVSSASTKGPSVFPLAPSSKSTSGGTAALGCLVKDYFPEPVTVSWNSGALTSGVHTFPAVLQSSGLYSLSSVVTVPSSSLGTQTYICNVNHKPSNTKVDKRVEPKSCDKTHTCPPCPAPEFEGGPSVFLFPPKPKDTLMISRTPEVTCVVVDVSHEDPEVKFNWYVDGVEVHNAKTKPREEQYNSTYRVVSVLTVLHQDWLNGKEYKCKVSNKALPASIEKTISKAKGQPREPQVYTLPPSREEMTKNQVSLTCLVKGFYPSDIAVEWESNGQPENNYKTTPPVLDSDGSFFLYSKLTVDKSRWQQGNVFSCSVMHEALHNHYTQKSLSLSPGK
light: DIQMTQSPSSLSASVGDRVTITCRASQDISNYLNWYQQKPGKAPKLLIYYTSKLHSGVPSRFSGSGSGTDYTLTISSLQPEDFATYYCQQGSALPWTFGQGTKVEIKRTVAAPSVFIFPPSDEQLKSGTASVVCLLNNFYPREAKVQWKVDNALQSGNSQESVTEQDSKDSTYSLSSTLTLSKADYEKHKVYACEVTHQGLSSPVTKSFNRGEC
notes: also called Anti OX40 mAb29; IgG1 triple mutant (IgG1-TM) version of OX40mAb24

Columns and labels:
[1] = target: T1, Mouse OX40; experiment: flow cytometry on activated primary mouse CD4+ T cells
Method: Mouse CD4⁺ T cells (150,000 per well in 100 μL complete medium) were cultured overnight in 96-well plates coated with 2 μg/mL each hamster anti-mouse CD3 and hamster anti-mouse CD28 antibodies to activate T cells and induce OX40 expression. Activated CD4⁺ T cells were removed from the incubation plate and 100,000 cells were transferred to each well of a non-tissue culture-treated 96-well round-bottom plate for binding assays and washed once with FACS buffer. Binding was performed with 10 μg/mL of OX40mAb24, 9B12 and rat anti-mouse OX40, clone OX86 (positive control) antibodies each serially diluted 3-fold in FACS buffer for a 10-point data curve. For negative controls, 10 μg/mL R347 human IgG1, MOPC-21 mouse IgG1 or RTK2071 rat IgG1 were diluted 6-fold for a 3 point data curve. FACS buffer (50 μL) containing OX40mAb24, or antibodies, was added to CD4⁺ T cells in duplicate and incubated. Following primary incubation, cells were washed with 200 μL of 4° C. […] Following secondary antibody incubation, cells were washed with 4° C. FACS buffer (200 μL per wash) and suspended in 100 μL FACS buffer for flow cytometry analysis on a BD LSRII flow cytometer as described in Section 2.3.

[2] = target: T2, Recombinant human TNFRSF16 (NGFR); experiment: ELISA, plate coated with a dilution series of the recombinant TNFRSF protein [panel A]
Method: (§1) An eight point, two-fold dilution series of each recombinant human TNFRSF protein was prepared after dilution of stock proteins to 5 μg/mL in PBS. Subsequently, 50 μL of each antigen dilution was transferred in duplicate to wells of a Nunc 96-well MaxiSorp flat bottom plate, and incubated overnight at 4° C. to adsorb proteins to the plate. Afterwards, plates were washed three times with PBS in a BioTek® plate washer to remove unbound protein. Anti OX40 mAb29, 9B12, and control antibodies were diluted in PBS to a final concentration of 10 μg/mL, and 50 μL of mAb were added to each well and incubated at room temperature for one hour to bind mAb to plate-bound protein. Thereafter, wells were washed with PBS/Tween-20 0.1% (volume/volume) using a BioTek® plate washer. HRP conjugated goat anti-human or goat anti-mouse secondary antibodies at 10 μg/mL was added to each well and incubated at room temperature for 1 hour. After three washes in PBS/Tween-20 0.1%, 50 μL of TMB substrate was added to each well and incubated at room temperature for 5 minutes to develop the colorimetric product. Reactions were stopped by adding 50 μL of 0.5 molar H₂SO₄ to wells, and plates read immediately at 450 nm using an Envision C plate reader for detection of the colorimetric product.

[3] = target: T10, Recombinant human TNFRSF3 (LTβR) (human, UniProt P36941 28-227, limits assumed); experiment: as above
T10 construct: Plate-adsorbed antigen of the ELISA
Method: as §1

[4] = target: T3, Recombinant human TNFRSF1β (TNFRII); experiment: as above
Method: as §1

[5] = target: T4, Recombinant human TNFRSF18 (GITR); experiment: as above
Method: as §1

[6] = target: T11, Recombinant human TNFRSF9 (CD137) (human, UniProt Q07011 24-186, limits assumed); experiment: as above
T11 construct: Plate-adsorbed antigen of the ELISA
Method: as §1

[7] = target: T5, Recombinant human TNFRSF14 (HVEM); experiment: as above
Method: as §1

[8] = target: T6, Recombinant human TNFRSF21 (DR6); experiment: as above
Method: as §1

[9] = target: T7, Recombinant human TNFRSF11B (OPG); experiment: as above
Method: as §1

[10] = target: T8, Recombinant human TNFRSF11A (RANK); experiment: as above
Method: as §1

[11] = target: T9, Recombinant human TNFRSF6 (FAS); experiment: as above
Method: as §1

[12] = target: T12, Recombinant human TNFRSF5 (CD40) (human, UniProt P25942 21-193); experiment: as above
T12 construct: Plate-adsorbed antigen of the ELISA
Method: as §1

T10 sequence (P36941 28-227 limits assumed): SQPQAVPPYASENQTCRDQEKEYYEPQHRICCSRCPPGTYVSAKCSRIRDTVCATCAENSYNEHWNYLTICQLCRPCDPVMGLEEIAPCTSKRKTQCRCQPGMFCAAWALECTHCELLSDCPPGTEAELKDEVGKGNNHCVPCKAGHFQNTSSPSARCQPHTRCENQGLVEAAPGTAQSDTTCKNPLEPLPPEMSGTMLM
T12 sequence (P25942 21-193 limits assumed): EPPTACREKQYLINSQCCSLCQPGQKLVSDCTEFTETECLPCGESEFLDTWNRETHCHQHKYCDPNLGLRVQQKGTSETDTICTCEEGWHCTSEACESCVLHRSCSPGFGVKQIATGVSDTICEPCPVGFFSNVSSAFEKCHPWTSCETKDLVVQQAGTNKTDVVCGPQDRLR

| Binder | binding result [1] | binding result [2] | binding result [3] | binding result [4] | binding result [5] | binding result [6] | binding result [7] | binding result [8] | binding result [9] | binding result [10] | binding result [11] | binding result [12] |
| --- | --- | --- | --- | --- | --- | --- | --- | --- | --- | --- | --- | --- |
| B1 | binds | – | – | – | – | – | – | – | – | – | – | – |
| B2 | – | no binding | no binding | no binding | no binding | no binding | no binding | no binding | no binding | no binding | no binding | no binding |
